94 variants from the supplement of paper PMC10567573 can be followed below.

The labels stand for the following.
B1: OAS1 (parent)
chain: LQLGEGVEFDVLPAFDALGQLTGG
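Also: lentivirally expressed fusions sorted by FACS into six bins by GFP to DsRed ratio, PSI derived from sequencing read proportions per bin multiplied by bin number.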

In the data set the parent is B1. Briefly: protein stability index of a GFP-peptide fusion (GPS, HEK-293T) (PSI 1-6); higher = more stable. To be noted: c terminus: a fixed tail appended.
In the case of LQLGEGVEFDVLPAFDALGQLTGN [G24N], the protein stability index is 1.5.

On to LQLGEGVEFDVLPAFDALGQLTGQ [G24Q], for which the protein stability index is 1.98. Then LQLGEGVEFDVLPAADALGQLTGG [F15A], with 2.92; and LQLGEGVEFDVLPAYDALGQLTGG [F15Y], with 1.47. In the case of LQLGEGVEFDVLPAPDALGQLTGG [F15P] it was 3.45; in that of LQLGEGVEFDVLPAMDALGQLTGG [F15M], 1.96.

Turning to LQLGEGVEFDVLPAKDALGQLTGG [F15K], the protein stability index turned out to be 4.1. In the case of LQLGEGVEFDVLPACDALGQLTGG [F15C] it was 1.86; in that of LQLGEGVEFDVLPASDALGQLTGG [F15S], 2.73; in that of LQLGEGVEFDVLPAHDALGQLTGG [F15H], 3.1. On to LQLGEGVEFDVQPAFDALGQLTGG [L12Q], for which the protein stability index was found to be 2.59. Then LQLGEGVEFDVVPAFDALGQLTGG [L12V], with 2.24. Then LQLGEGVEFDVNPAFDALGQLTGG [L12N], with 2.99; and LQLGEGVEFDVKPAFDALGQLTGG [L12K], with 2.94. Then LTLGEGVEFDVLPAFDALGQLTGG [Q2T], with 1.61. Consider LELGEGVEFDVLPAFDALGQLTGG [Q2E], for which the protein stability index was 3.58. Then LALGEGVEFDVLPAFDALGQLTGG [Q2A], with 3.5; and LQLGEGVEFDVLPAFDALGQLAGG [T22A], with 3.87.

Turning to LQLGEGVEFDVLPAFDALGQLFGG [T22F], the protein stability index is 2.69. In the case of CQLGEGVEFDVLPAFDALGQLTGG [L1C] it was 2.95. Then YQLGEGVEFDVLPAFDALGQLTGG [L1Y], with 2.31; and LQLGEGVEFDVLPAFDAFGQLTGG [L18F], with 1.14; and LQLGEGVEFDVLPAFDAWGQLTGG [L18W], with 3.14. In the case of LQLGEGVEFDVLPAFDADGQLTGG [L18D] it was 3.47; in that of LQLGEGVEFDVLPAFDAYGQLTGG [L18Y], 2.13. Take LQLGEGVEFDVLPAFDAMGQLTGG [L18M]: the protein stability index was found to be 1.66.

As to LQLGEGVEFDVLPAFDAIGQLTGG [L18I], the protein stability index came out at 1.26. In the case of LQLGEGVEFDVLPAFDAEGQLTGG [L18E] it was 3.1.

In the case of LQLGEGVEFDVLPAFIALGQLTGG [D16I], the protein stability index amounted to 3.52.

For the variant LQLGEGVEFDVLPAFKALGQLTGG [D16K], the protein stability index worked out at 1.81.

Consider LQLGEGVEFDVLPAFPALGQLTGG [D16P], for which the protein stability index came out at 2.46. In the case of LQLGEGVEFDVLPAFCALGQLTGG [D16C] it was 1.34; in that of LQLGEGVEFDVLPAFAALGQLTGG [D16A], 1.79; in that of LQLGEGVEFDVLPAFDVLGQLTGG [A17V], 2.86. In the case of LQLGEGVEFDVLPAFDMLGQLTGG [A17M] it was 2.14; in that of LQLGEGVEFDVLPAFDGLGQLTGG [A17G], 2.01; in that of LQLGEGVEFDVLPAFDPLGQLTGG [A17P], 2.41. In the case of LQLGEGVDFDVLPAFDALGQLTGG [E8D] it was 2.54.

Turning to LQLGEGVTFDVLPAFDALGQLTGG [E8T], the protein stability index stood at 1.42. Then LQLGEGVWFDVLPAFDALGQLTGG [E8W], with 1.98; and LQLGEGNEFDVLPAFDALGQLTGG [V7N], with 2.46; and LQLGEGCEFDVLPAFDALGQLTGG [V7C], with 1.34. Then LQLGEGYEFDVLPAFDALGQLTGG [V7Y], with 1.55. Then LQLGEGVEFDRLPAFDALGQLTGG [V11R], with 2.54; and LQLGEGVEFDKLPAFDALGQLTGG [V11K], with 2.72; and LQLGEGVEFDTLPAFDALGQLTGG [V11T], with 2.21. Take LQLGEGVEDDVLPAFDALGQLTGG [F9D]: the protein stability index amounted to 3.88.

For LQLGEGVEQDVLPAFDALGQLTGG [F9Q], the protein stability index turned out to be 3.84. As to LQLGEGVEHDVLPAFDALGQLTGG [F9H], the protein stability index was 4.18. Then LQLGEGVENDVLPAFDALGQLTGG [F9N], with 4.57; and LQLTEGVEFDVLPAFDALGQLTGG [G4T], with 2.28.

With LQLYEGVEFDVLPAFDALGQLTGG [G4Y], the protein stability index was found to be 1.08.

On to LQLVEGVEFDVLPAFDALGQLTGG [G4V], for which the protein stability index turned out to be 1.7. Then LQLGEGVEFDVLPAFDALTQLTGG [G19T], with 2.01.

In the case of LQLGEGVEFDVLPAFDALLQLTGG [G19L], the protein stability index came out at 2.67. In the case of LQLGEGVEFDVLPAFDALKQLTGG [G19K] it was 2.3. Then LQLGEGVEFDVLPVFDALGQLTGG [A14V], with 1.19; and LQLGEGVEFDVLPPFDALGQLTGG [A14P], with 2.02. In the case of LQLGEGVEFDVLPYFDALGQLTGG [A14Y] it was 1.53; in that of LQLGEGVEFDVLPSFDALGQLTGG [A14S], 1.55; in that of LQLGEGVEFDVLNAFDALGQLTGG [P13N], 2.69. As for LQLGEGVEFDVLYAFDALGQLTGG [P13Y], the protein stability index stood at 2.03.

As to LQLGEGVEFDVLDAFDALGQLTGG [P13D], the protein stability index amounted to 1.4.

As for LQLGEGVEFDVLRAFDALGQLTGG [P13R], the protein stability index was 1.29. Then LQLGERVEFDVLPAFDALGQLTGG [G6R], with 2.33; and LQLGEMVEFDVLPAFDALGQLTGG [G6M], with 2.01. Turning to LQLGECVEFDVLPAFDALGQLTGG [G6C], the protein stability index worked out at 1.83.

Regarding LQLGENVEFDVLPAFDALGQLTGG [G6N], the protein stability index amounted to 2.25. For LQLGWGVEFDVLPAFDALGQLTGG [E5W], the protein stability index came to 2.32. Then LQLGTGVEFDVLPAFDALGQLTGG [E5T], with 2.05; and LQLGEGVEFFVLPAFDALGQLTGG [D10F], with 1.64. Then LQLGEGVEFDVLPAFDALGELTGG [Q20E], with 2.02; and LQLGEGVEFDVLPAFDALGVLTGG [Q20V], with 2.01; and LQLGEGVEFDVLPAFDALGHLTGG [Q20H], with 2.94.

For LQLGEGVEFDVLPAFDALGLLTGG [Q20L], the protein stability index stood at 1.02. Then LQLGEGVEFDVLPAFDALGMLTGG [Q20M], with 1.82; and LQLGEGVEFDVLPAFDALGSLTGG [Q20S], with 1.77; and LQPGEGVEFDVLPAFDALGQLTGG [L3P], with 4.01. Then LQYGEGVEFDVLPAFDALGQLTGG [L3Y], with 3.37. In the case of LQDGEGVEFDVLPAFDALGQLTGG [L3D], the protein stability index came to 2.98. In the case of LQTGEGVEFDVLPAFDALGQLTGG [L3T] it was 3.61; in that of LQMGEGVEFDVLPAFDALGQLTGG [L3M], 2.34; in that of LQCGEGVEFDVLPAFDALGQLTGG [L3C], 2.57. Then LQKGEGVEFDVLPAFDALGQLTGG [L3K], with 3.97; and LQSGEGVEFDVLPAFDALGQLTGG [L3S], with 3.02. Then LQLGEGVEFDVLPAFDALGQETGG [L21E], with 2.5. Regarding LQLGEGVEFDVLPAFDALGQKTGG [L21K], the protein stability index is 3.12.

Take LQLGEGVEFDVLPAFDALGQITGG [L21I]: the protein stability index stood at 2.91. Then LQLGEGVEFDVLPAFDALGQLTQG [G23Q], with 2.58. In the case of LQLGEGVEFDVLPAFDALGQLTSG [G23S] it was 1.74; in that of LQLGEGVEFDVLPAFDALGQLTYG [G23Y], 1.34. Regarding LQLGEGVEFDVLPAFDALGQLTKG [G23K], the protein stability index worked out at 2.13. Then LQLGEGVEFDVLPAFDALGQLTIG [G23I], with 1.19. Then LQLGEGVEFDVLPAFDALGQLTCG [G23C], with 1.52.
